Data: US8003599B2, “Inhibitors of L1 and ADAM10 for the treatment of carcinomas” (Deutsches Krebsforschungszentrum, priority 2004, dated 2011)

B1: soluble L1: affinity purified soluble L1 from ascites fluid of ovarian carcinoma patients, 150 kDa and 200 kDa (protein)
chain: IQIPEEYEGHHVMEPPVITEQSPRRLVVFPTDDISLKCEASGKPEVQFRWTRDGVHFKPKEELGVTVYQSPHSGSFTITGNNSNFAQRFQGIYRCFASNKLGTAMSHEIRLMAEGAPKWPKETVKPVEVEEGESVVLPCNPPPSAEPLRIYWMNSKILHIKQDERVTMGQNGNLYFANVLTSDNHSDYICHAHFPGTRTIIQKEPIDLRVKATNSMIDRKPRLLFPTNSSSHLVALQGQPLVLECIAEGFPTPTIKWLRPSGPMPADRVTYQNHNKTLQLLKVGEEDDGEYRCLAENSLGSARHAYYVTVEAAPYWLHKPQSHLYGPGETARLDCQVQGRPQPEVTWRINGIPVEELAKDQKYRIQRGALILSNVQPSDTMVTQCEARNRHGLLLANAYIYVVQLPAKILTADNQTYMAVQGSTAYLLCKAFGAPVPSVQWLDEDGTTVLQDERFFPYANGTLGIRDLQANDTGRYFCLAANDQNNVTIMANLKVKDATQITQGPRSTIEKKGSRVTFTCQASFDPSLQPSITWRGDGRDLQELGDSDKYFIEDGRLVIHSLDYSDQGNYSCVASTELDVVESRAQLLVVGSPGPVPRLVLSDLHLLTQSQVRVSWSPAEDHNAPIEKYDIEFEDKEMAPEKWYSLGKVPGNQTSTTLKLSPYVHYTFRVTAINKYGPGEPSPVSETVVTPEAAPEKNPVDVKGEGNETTNMVITWKPLRWMDWNAPQVQYRVQWRPQGTRGPWQEQIVSDPFLVVSNTSTFVPYEIKVQAVNSQGKGPEPQVTIGYSGEDYPQAIPELEGIEILNSSAVLVKWRPVDLAQVKGHLRGYNVTYWREGSQRKHSKRHIHKDHVVVPANTTSVILSGLRPYSSYHLEVQAFNGRGSGPASEFTFSTPEGVPGHPEALHLECQSNTSLLLRWQPPLSHNGVLTGYVLSYHPLDEGGKGQLSFNLRDPELRTHNLTDLSPHLRYRFQLQATTKEGPGEAIVREGGTMALSGISDFGNISATAGENYSVVSWVPKEGQCNFRFHILFKALGEEKGGASLSPQYVSYNQSSYTQWDLQPDTDYEIHLFKERMFRHQMAVKTNGTGRVRLPPAGFATE
B2: soluble L1 released from HEK293-hL1mutSH3 cells: supernatant collected from HEK293-hL1mutSH3 cells, concentrated tenfold (protein, UniProt P32004 20-1120, looked up)
extracellular domain: B1 chain
modifications: extracellular domain from SH3-motif mutant L1
notes: supernatant collected from HEK293-hL1mutSH3 cells, concentrated tenfold

System: HEK293 cells
Assay: Haptotactic cell migration assay in Transwell chambers, HEK293 cells
Type: cell-based, human
Description: (C) Inhibition of haptotactic cell migration in the absence or presence of the indicated mAbs to integrins at a final concentration of 10 μg/ml. FN at 10 μg/ml or BSA for control were coated onto the backside of Transwell chambers. Cells were seeded into the top chamber and allowed to transmigrate for 16 hr at 37° C. The antibody was present during the assay time. Each determination was done in quadruplicate and transmigrated cells were stained from the back of the filter. The dye was eluted from the filter and measured at 595 nm. The amount of dye is proportional to the number of transmigrated cells. Values for the migration on BSA were below 0.25 O.D. units for each cell type.
The haptotactic cell migration assay on fibronectin, laminin or BSA was performed in Transwell chambers (Costar, 6.5 mm diameter, 5 um pore size) and was described in detail elsewhere (Mechtersheimer et al., supra). Transmigrated cells were quantified by staining of the transwell membranes with cristalviolet solution as described (Mechtersheimer at al., supra). The eluted dye was measured at 595 nm in an ELISA reader.

Molecule | induction of cell migration by ascites derived soluble L1 (fibronectin as substrate (FIG. 4B)) | induction of HEK293 migration by L1mutSH3-HEK293 supernatant (conditioned medium concentrated tenfold)
B1 | potent dose-dependent inducer of cell migration | 
B2 |  | able to induce migration
